Source: patent publication US12624112 (MABWELL SHANGHAI BIOSCIENCE, dated 2026)

B1: 5888-153-H3L1 (antibody, human IgG4 S228P, kappa, V domains shown)
VH: QVQLVQSGAEVKKPGASVKVSCKASGYTFTDYELHWVRQAPGQGLEWMGTIDPETGDTVYNQKFKARVTMTADKSTSTAYMELSSLRSEDTAVYYCTRAFYNDYDDAFAYWGQGTLVTVSS
VL: EIVMTQSPATLSLSPGERATLSCSVSSSVSYMHWYQQKPGQAPRRLIYDTSKLASGIPARFSGSGSGTDYTLTISSLEPEDAAVYYCQQWNSSPLTFGGGTKVEIKR
notes: Humanized antibody
B2: 5888-153-H0L1 (antibody, human IgG4 S228P, kappa, V domains shown)
VH: QVQLVQSGAEVKKPGASVKVSCKASGYTFTDYELHWVRQAPGQGLEWMGTIDPETGDTVYNQKFKARVTMTRDTSTSTVYMELSSLRSEDTAVYYCARAFYNDYDDGFAYWGQGTLVTVSS
VL: EIVMTQSPATLSLSPGERATLSCSVSSSVSYMHWYQQKPGQAPRRLIYDTSKLASGIPARFSGSGSGTDYTLTISSLEPEDAAVYYCQQWNSSPLTFGGGTKVEIKR
notes: Humanized antibody
B3: 5888-116-H0L1 (antibody, human IgG4 S228P, kappa, V domains shown)
VH: QVQLVQSGAEVKKPGASVKVSCKASGYTFTDSEMYWVRQAPGQGLEWMGAIDPETGDTAFNQKFKGRVTMTRDTSTSTVYMELSSLRSEDTAVYYCARAFDNDNDDGFAYWGQGTMVTVSS
VL: DIQMTQSPSSLSASVGDRVTITCSASSSVNYMHWYQQKPGKAPKRLIYDTSKLASGVPSRFSGSGSGTDYTFTISSLQPEDAATYYCQQWSSNPLTFGQGTKLEIKR
notes: Humanized antibody

Legend:
[1] = molecular target: T1, ST2 on the effector cells (KU812, KU812/NF-κB-1#, HUVEC, HMC-1) (human, UniProt Q01638 19-556); assay: cell-based or functional assay
T1 sequence (looked up): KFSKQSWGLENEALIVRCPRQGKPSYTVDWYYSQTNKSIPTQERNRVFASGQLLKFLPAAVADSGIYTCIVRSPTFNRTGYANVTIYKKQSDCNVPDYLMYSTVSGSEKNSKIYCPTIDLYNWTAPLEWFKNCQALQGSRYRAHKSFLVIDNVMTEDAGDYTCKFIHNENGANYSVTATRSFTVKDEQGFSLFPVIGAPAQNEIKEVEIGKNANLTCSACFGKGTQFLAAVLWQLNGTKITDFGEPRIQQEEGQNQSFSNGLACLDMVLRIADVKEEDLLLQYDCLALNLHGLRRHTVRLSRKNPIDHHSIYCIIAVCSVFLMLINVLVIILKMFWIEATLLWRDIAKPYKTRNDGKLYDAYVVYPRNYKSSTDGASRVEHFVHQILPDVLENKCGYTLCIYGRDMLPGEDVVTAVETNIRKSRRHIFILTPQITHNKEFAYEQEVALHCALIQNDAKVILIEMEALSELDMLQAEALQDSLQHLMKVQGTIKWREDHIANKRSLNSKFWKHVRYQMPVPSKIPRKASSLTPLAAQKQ

[2] = molecular target: T1, ST2 on the effector cells (KU812, …); assay: cell-based or functional assay; remark: listed apart in the source
[3] = molecular target: T1, ST2 on the effector cells (KU812, …); assay: cell-based or functional assay; remark: listed apart in the source
[4] = molecular target: T1, ST2 on the effector cells (KU812, …); assay: cell-based or functional assay; remark: listed apart in the source
[5] = molecular target: T1, ST2 on the effector cells (KU812, …); assay: cell-based or functional assay; remark: listed apart in the source
[6] = molecular target: T1, ST2 on the effector cells (KU812, …); assay: cell-based or functional assay; remark: listed apart in the source
Human ST2-fc (human) = Human ST2-fc (human) (UniProt Q01638); assay: competition ELISA, coated ST2-fc, competitor IL33-his
Human ST2-his [7] = molecular target: T2, Human ST2-his (human, UniProt Q01638-2 19-328, limits assumed); assay: SPR Biacore X100, ratio of kd at pH 5.5 to kd at pH 7.4
T2 construct: Expressed in CHO-K1; The printed range starts at Met1; also called human ST2 fused with a 6-histidine tag at the C-terminus
T2 sequence: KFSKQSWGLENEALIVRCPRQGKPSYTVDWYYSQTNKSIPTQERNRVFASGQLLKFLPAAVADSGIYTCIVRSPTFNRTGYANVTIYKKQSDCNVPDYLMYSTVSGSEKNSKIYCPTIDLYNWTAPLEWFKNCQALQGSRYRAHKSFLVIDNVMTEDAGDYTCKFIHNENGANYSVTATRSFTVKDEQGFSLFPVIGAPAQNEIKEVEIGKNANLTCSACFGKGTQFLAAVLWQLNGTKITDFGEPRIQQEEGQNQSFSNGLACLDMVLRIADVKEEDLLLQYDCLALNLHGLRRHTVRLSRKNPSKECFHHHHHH
Protocol: (§1) The experiment on the interaction between the anti-human ST2 antibodies and human ST2-his was performed using Biacore X100.
(§2) Each anti-human ST2 antibody was diluted to 2 µg/mL and captured on the surface of a protein A chip for a capture time of 60 s. Following the antibody capture, a solution of human ST2-his (2-fold gradient dilution from a starting concentration of 20 nM, to obtain 6 concentrations in total) was injected. Association was monitored for 180 s and dissociation was monitored for 700 s, and the sensor surface was regenerated by injecting a solution of glycine at pH 2.0. Kinetic data were analyzed using a simple 1:1 binding model.

Human ST2-his [8] = molecular target: T2, Human ST2-his; assay: SPR Biacore X100, antibody captured on protein A chip, human ST2-his injected, pH 7.4
Protocol: as §1, §2

Human ST2-his [9] = molecular target: T2, Human ST2-his; assay: SPR Biacore X100, antibody captured on protein A chip, human ST2-his injected, dissociation at pH 5.5
Protocol: as §1, §2

Binder | IC50, inhibition of KU812-IL5 production promoted by IL-33 (human IL33-his) [1] [µg/mL] | Maximum inhibition rate, KU812-IL5 production by IL-33 [1] [%] | Relative activity compared with CNTO7160, KU812-IL5 production by IL-33 [1] [%] | IC50, inhibition of activation of KU812-NF-κB reporter gene by IL33 [2] [µg/mL] | Maximum inhibition rate, KU812-NF-κB reporter gene [2] [%] | Relative activity compared with CNTO7160, KU812-NF-κB reporter gene [2] [%] | IC50, inhibition of KU812-IL5 production promoted by oxidized IL33 [3] [µg/mL] | Maximum inhibition rate, KU812-IL5 production by oxidized IL33 [3] [%] | Relative activity, KU812-IL5 production by oxidized IL33 [3] [%] | IC50, inhibition of KU812-IL5 production promoted by reduced IL33 [4] [µg/mL] | Maximum inhibition rate, KU812-IL5 production by reduced IL33 [4] [%] | Relative activity, KU812-IL5 production by reduced IL33 [4] [%] | IC50, inhibition of HUVEC-IL6 production promoted by IL33 [5] [µg/mL] | Maximum inhibition rate, HUVEC-IL6 production by IL33 [5] [%] | Relative activity, HUVEC-IL6 production by IL33 [5] [%] | IC50, inhibition of HMC-1 IL8 production promoted by IL33 [6] [µg/mL] | Maximum inhibition rate, HMC-1 IL8 production by IL33 [6] [%] | Relative activity, HMC-1 IL8 production by IL33 [6] [%] | IC50 (Human ST2-fc (human)) [µg/mL] | Maximum inhibition rate (Human ST2-fc (human)) [%] | also measured
B1 | 0.00815 | 97 | 742 | 0.0394 | 86.1 | 508 | 0.0136 | 101 | 162 | 0.265 | 86.9 | 554 | 1.64 | 93 | 167 | 0.0472 | 86.8 | 213 | 0.553 | 93.7 | Relative activity compared with CNTO7160 (Human ST2-fc (human)): 228%; kd ratio of pH 5.5/pH 7.4 (Human ST2-his [7]): 1.57; Kd (Human ST2-his [8]): 0.097 nM; koff (Human ST2-his [8]): 0.000148 s⁻¹; kon (Human ST2-his [8]): 1.53e+06 M⁻¹ s⁻¹; Kd (Human ST2-his [9]): 0.122 nM; koff (Human ST2-his [9]): 0.000232 s⁻¹; kon (Human ST2-his [9]): 1.9e+06 M⁻¹ s⁻¹
B2 | 0.0303 | 99.1 | 201 | 0.0438 | 88.2 | 458 | 0.0147 | 101 | 150 | 0.389 | 83.6 | 377 | 0.844 | 93 | 323 | 0.0359 | 87.2 | 280 | 0.3 | 94.3 | Relative activity compared with CNTO7160 (Human ST2-fc (human)): 380%; kd ratio of pH 5.5/pH 7.4 (Human ST2-his [7]): 0.86; Kd (Human ST2-his [8]): 0.0997 nM; koff (Human ST2-his [8]): 0.000176 s⁻¹; kon (Human ST2-his [8]): 1.76e+06 M⁻¹ s⁻¹; Kd (Human ST2-his [9]): 0.0706 nM; koff (Human ST2-his [9]): 0.000152 s⁻¹; kon (Human ST2-his [9]): 2.15e+06 M⁻¹ s⁻¹
B3 | 0.00929 | 98.3 | 656 | 0.013 | 95.7 | 1540 | 0.0036 | 102 | 614 | 0.124 | 75.1 | 1180 | 0.832 | 92.6 | 328 | 0.00551 | 90.6 | 1830 | 0.0204 | 94.1 | Relative activity compared with CNTO7160 (Human ST2-fc (human)): 5200%; kd ratio of pH 5.5/pH 7.4 (Human ST2-his [7]): 3.02; Kd (Human ST2-his [8]): 0.259 nM; koff (Human ST2-his [8]): 0.000464 s⁻¹; kon (Human ST2-his [8]): 1.79e+06 M⁻¹ s⁻¹; Kd (Human ST2-his [9]): 0.474 nM; koff (Human ST2-his [9]): 0.0014 s⁻¹; kon (Human ST2-his [9]): 2.95e+06 M⁻¹ s⁻¹
